What is called Ki is a dissociation constant, usually derived from enzyme kinetics or from competition with a known ligand.

Data on five molecules can be found in US6680424 (UNIVERSITY OF LEEDS, dated 2004).

Like-named read-outs stand apart in the source and are kept apart here.

Assay [1] addresses corresponding proteinases (proteinase of the comparative inhibition assay, not named). Kind of assay: cell-based or functional assay.
Assay [2] concerns the target T1, papain (UniProt P00784 134-345).
T1 sequence (looked up): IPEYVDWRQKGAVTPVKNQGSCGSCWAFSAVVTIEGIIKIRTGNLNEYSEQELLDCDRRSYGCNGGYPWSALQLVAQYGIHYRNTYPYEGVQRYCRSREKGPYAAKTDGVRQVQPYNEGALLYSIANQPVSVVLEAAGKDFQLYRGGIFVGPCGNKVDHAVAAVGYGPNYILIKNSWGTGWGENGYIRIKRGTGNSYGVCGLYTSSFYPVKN
Kind of assay: proteinase inhibition assay, Ki.

Assay [3] deals with T2, C. elegans cysteine proteinase gcp-1, expressed and purified from E. coli (Caenorhabditis elegans, UniProt P25807 85-329, limits assumed).
T2 construct: also called gcp-I; glp-1
T2 sequence (looked up): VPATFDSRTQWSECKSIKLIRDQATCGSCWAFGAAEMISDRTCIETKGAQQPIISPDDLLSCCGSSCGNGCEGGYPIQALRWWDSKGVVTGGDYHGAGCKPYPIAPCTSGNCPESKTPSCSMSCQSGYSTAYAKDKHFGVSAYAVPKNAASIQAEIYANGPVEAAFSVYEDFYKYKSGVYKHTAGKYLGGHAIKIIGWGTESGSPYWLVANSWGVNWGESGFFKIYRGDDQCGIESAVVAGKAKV
Kind of assay: proteinase inhibition assay, Ki.

The target in assay [4] is T1, papain. Kind of assay: proteinase inhibition assay (Barrett), Ki calculated as by Abe et al. How it is done:
(§1) To determine the Ki of cystatins biochemical assays were performed according to the procedure of Barrett (7) and Ki values were calculated as described by Abe et al. (3)

Assay [5] has as its target T2, C. elegans cysteine proteinase gcp-1, …. The description is as above. How it is done: as §1
For assay [6], the target named is corresponding proteinases (proteinase of the comparative inhibition assay, not named). Kind of assay: cell-based or functional assay. This is another data set of the same source.

In the case of “Chicken egg white cystatin (CEWC) (from UniProt P01038 24-139)”, in assay [1], the relative percentage inhibition was 100%.

Molecule “OC-NTERM1-15QVLSG40-63CTERM97-116 (hybrid of Oc-I with three CEWC regions) (from UniProt P09229 56-77; P09229 102-123)” displayed a relative percentage inhibition in assay [1] of 90%.

B1: Oc-IdeltaD86 (Oryzacystatin I with aspartic acid 86 deleted) (other)
chain: HHHHHHMSSDGGPVLGGVEPVGNENDLHLVDLARFAVTEHNKKANSLLEFEKLVSVKQQVVAGTLYYFTIEVKEGDAKKLYEAKVWEKPWMFKELQEFKPVDASANA
Molecule B1 showed a relative percentage inhibition in assay [1] of 88%. For the same molecule, the “fold lowering of Ki against wild type Oc-I” value (in the assay with papain [2]; in assay [3]) was roughly 13 fold in each case. The Ki with papain [4] was 0.5 nM; in assay [5], 0.6 nM.

B2: Oc-I with deletion of residue M85 (other)
chain: HHHHHHMSSDGGPVLGGVEPVGNENDLHLVDLARFAVTEHNKKANSLLEFEKLVSVKQQVVAGTLYYFTIEVKEGDAKKLYEAKVWEKPWDFKELQEFKPVDASANA
As to B2, in assay [5], the Ki is 7.1 nM.

B3: Oryzacystatin I (Oc-I), wild type, expressed from pQE30 in E. coli (other, Oryza sativa L. japonica)
chain: HHHHHHMSSDGGPVLGGVEPVGNENDLHLVDLARFAVTEHNKKANSLLEFEKLVSVKQQVVAGTLYYFTIEVKEGDAKKLYEAKVWEKPWMDFKELQEFKPVDASANA
notes: the present UniProt entry may carry a longer N-terminus, so the numbering must be checked; also called Oryzacystatin Oc-I; native Oc-I
The molecule B3 had a relative percentage inhibition in assay [6] of 60%. In addition, the Ki was 7 nM with papain [4] and 8 nM in assay [5].
